B1: FCHO1 (parent)
chain: FSDPSQSDPETKDFWLNMAALTEA

Variants of: B1
Assay: protein stability index of a GFP-peptide fusion (GPS, HEK-293T) (PSI 1-6); higher = more stable
Details: c terminus: a fixed tail appended
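Further: lentivirally expressed fusions sorted by FACS into six bins by GFP to DsRed ratio, PSI derived from sequencing read proportions per bin multiplied by bin number.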

Row | Variant | protein stability index
1 | FSDPSQSDPETKDFWLNMAAITEA [L21I] | 3
2 | FSDPSQSDPETKDFWLNMAADTEA [L21D] | 3.27
3 | FSDPSQSDPETKDFWLNMAAFTEA [L21F] | 2.1
4 | FSDPSQSDPETKDFWLNMAAWTEA [L21W] | 1.73
5 | FSDPSQSDPETKDFWLNMAAHTEA [L21H] | 2.55
6 | FSDPSQSDPETKDFWLNMAAKTEA [L21K] | 2.95
7 | FSDPSQSDPETKDFWLNMAAGTEA [L21G] | 2.52
8 | FSDPSQSDPETKDFWLNMAAETEA [L21E] | 3.9
9 | FSDPSQSDPETKDFWLNMAASTEA [L21S] | 2.62
10 | FSDPSQSDPETKDEWLNMAALTEA [F14E] | 4.99
11 | FSDPSQSDPETKDTWLNMAALTEA [F14T] | 4.57
12 | FSDPSQSDPETKDMWLNMAALTEA [F14M] | 4.12
13 | FSDPSQSDPETKDLWLNMAALTEA [F14L] | 3.69
14 | FSDPSQSDPETKDYWLNMAALTEA [F14Y] | 3.98
15 | FSDPSQSDPETKDDWLNMAALTEA [F14D] | 4.88
16 | FSDPSQSDPETKDSWLNMAALTEA [F14S] | 4.78
17 | FSDPSQSDPETKDRWLNMAALTEA [F14R] | 4.62
18 | FSDPSQSDPETKDGWLNMAALTEA [F14G] | 4.83
19 | FSDPSQSDPETKDQWLNMAALTEA [F14Q] | 4.75
20 | FSDPSQSDPETKDHWLNMAALTEA [F14H] | 4.51
21 | FSDPSQSDPETKDWWLNMAALTEA [F14W] | 3.87
22 | FSDPSQSDPETKDCWLNMAALTEA [F14C] | 4.11
23 | FSDPSQSDPETKDNWLNMAALTEA [F14N] | 4.76
24 | FSDPSQSDPETKDVWLNMAALTEA [F14V] | 4.01

Row | Variant | protein stability index
25 | FSDPSQSDPETKDAWLNMAALTEA [F14A] | 4.17
26 | FSDPSQSDPETKDIWLNMAALTEA [F14I] | 3.61
27 | FSDPSQSDPETKDKWLNMAALTEA [F14K] | 4.72
28 | FSDPSQSDPETKDPWLNMAALTEA [F14P] | 4.58
29 | FSDPSQSDPETKDFWLNIAALTEA [M18I] | 2.37
30 | FSDPSQSDPETKDFWLNWAALTEA [M18W] | 3.18
31 | FSDPSQSDPETKDFWLNFAALTEA [M18F] | 2.78
32 | FSDPSQSDPETKDFWLNDAALTEA [M18D] | 4.25
33 | FSDPSQSDPETKDFWLNGAALTEA [M18G] | 3.27
34 | FSDPSQSDPETKDFWLNNAALTEA [M18N] | 3.55
35 | FSDPSQSDPETKDFWLNRAALTEA [M18R] | 3.11
36 | FSDPSQSDPETKDFWLNAAALTEA [M18A] | 3.02
37 | FSDPSQSDPETKDFWLNYAALTEA [M18Y] | 3.59
38 | FSDPSQSDPETKDFWLNCAALTEA [M18C] | 2.78
39 | FSDPSQSDPETKDFWLNPAALTEA [M18P] | 3.53
40 | FSDPSQSDPETKDFWLNHAALTEA [M18H] | 3.22
41 | FSDPSQSDPETKDFWLNKAALTEA [M18K] | 2.91
42 | FSDPSQSDPETKDFWLNEAALTEA [M18E] | 3.98
43 | FSDPSQSDPETKDFWLNTAALTEA [M18T] | 2.62
44 | FSDPSQSDPETKDFWLNLAALTEA [M18L] | 2.57
45 | FSDPSQSDPETKDFWLNVAALTEA [M18V] | 2.56
46 | FSDPSQSDPETKDFWLNSAALTEA [M18S] | 3.12
47 | FSDPSQSDPETKDFWLNQAALTEA [M18Q] | 3.77
48 | FSDPSQSDPETKDFSLNMAALTEA [W15S] | 4.82

Row | Variant | protein stability index
49 | FSDPSQSDPETKDFKLNMAALTEA [W15K] | 4.85
50 | FSDPSQSDPETKDFRLNMAALTEA [W15R] | 4.68
51 | FSDPSQSDPETKDFTLNMAALTEA [W15T] | 4.38
52 | FSDPSQSDPETKDFCLNMAALTEA [W15C] | 4.62
53 | FSDPSQSDPETKDFILNMAALTEA [W15I] | 4.43
54 | FSDPSQSDPETKDFLLNMAALTEA [W15L] | 4.59
55 | FSDPSQSDPETKDFFLNMAALTEA [W15F] | 4.3
56 | FSDPSQSDPETKDFNLNMAALTEA [W15N] | 4.79
57 | FSDPSQSDPETKDFHLNMAALTEA [W15H] | 4.73
58 | FSDPSQSDPETKDFVLNMAALTEA [W15V] | 4.77
59 | FSDPSQSDPETKDFYLNMAALTEA [W15Y] | 4.38
60 | FSDPSQSDPETKDFELNMAALTEA [W15E] | 4.68
61 | FSDPSQSDPETKDFGLNMAALTEA [W15G] | 4.65
62 | FSDPSQSDPETKDFALNMAALTEA [W15A] | 4.88
63 | FSDPSQSDPETKDFQLNMAALTEA [W15Q] | 4.45
64 | FSDPSQSDPETKDFMLNMAALTEA [W15M] | 4.48
65 | FSDPSQSDPETKDFPLNMAALTEA [W15P] | 4.66
66 | FSDPSQSDPETKDFDLNMAALTEA [W15D] | 5.32
67 | FSDPSQSDPETKDFWLNMADLTEA [A20D] | 3.25
68 | FSDPSQSDPETKDFWLNMAELTEA [A20E] | 3.61
69 | FSDPSQSDPETKDFWLNMAYLTEA [A20Y] | 2.44
70 | FSDPSQSDPETKDFWLNMAMLTEA [A20M] | 2.85
71 | FSDPSQSDPETKDFWLNMAILTEA [A20I] | 2.38
72 | FSDPSQSDPETKDFWLNMALLTEA [A20L] | 2.31

Row | Variant | protein stability index
73 | FSDPSQSDPETKDFWLNMAFLTEA [A20F] | 2.24
74 | FSDPSQSDPETKDFWLNMACLTEA [A20C] | 2.34
75 | FSDPSQSDPETKDFWLNMARLTEA [A20R] | 2.81
76 | FSDPSQSDPETKDFWLNMAPLTEA [A20P] | 2.96
77 | FSDPSQSDPETKDFWLNMAHLTEA [A20H] | 2.82
78 | FSDPSQSDPETKDFWLNMASLTEA [A20S] | 2.94
79 | FSDPSQSDPETKDFWLNMATLTEA [A20T] | 2.71
80 | FSDPSQSDPETKDFWLNMANLTEA [A20N] | 2.86
81 | FSDPSQSDPETKDFWLNMAVLTEA [A20V] | 2.19
82 | FSDPSQSDPETKDFWLNMAQLTEA [A20Q] | 2.63
83 | FSDPSQSDPETKDFWLNMAKLTEA [A20K] | 2.63
84 | FSDPSQSDPETKDFWLNMAGLTEA [A20G] | 2.65
85 | FSDPSQSDPETKDFWLNMAWLTEA [A20W] | 2.16
86 | FSDPSQSDPETKDFWLNMAALKEA [T22K] | 2.61
87 | FSDPSQSDPETKDFWLNMAALEEA [T22E] | 3.66
88 | FSDPSQSDPETKDFWLNMAALFEA [T22F] | 3.23
89 | FSDPSQSDPETKDFWLNMAALIEA [T22I] | 2.86
90 | FSDPSQSDPETKDFWLNMAALAEA [T22A] | 2.87
91 | FSDPSQSDPETKDFWLNMAALGEA [T22G] | 2.53
92 | FSDPSQSDPETKDFWLNMAALHEA [T22H] | 3
93 | FSDPSQSDPETKDFWLNMAALCEA [T22C] | 3.09
94 | FSDPSQSDPETKDFWLNMAALDEA [T22D] | 3.04

— the supplement of paper PMC10567573
